Laboratory results from PMC13061415.

Experiments:
Wdr26 (102–641) (mouse) = Wdr26 (102–641) (mouse) (UniProt Q8C6G8); assay: ITC; competition: RanBP9-Twa1 or RanBP10-Twa1 complex (160 μM) titrated into pre-formed Twa1_52-muskelin or Twa1_52-Wdr26 complex (16 μM); 25°C; competitive binding model with the parameters of the first titration
muskelin (1–735) (rat) = muskelin (1–735) (rat) (UniProt Q99PV3); assay: as above
[1] = target: muskelin CTLH-CRA domain (205–735 Δ248–625) (UniProt Q99PV3); assay: ITC; details: 160 µM muskelin + 16 µM RanBP10
[2] = target: muskelin CTLH-CRA domain (205–735 Δ248–625) (UniProt Q99PV3); assay: ITC; details: for other: -TΔS / dG / other: ΔH: read off a plot
[3] = target: RanBP10 CTLH-CRA domain Q519G (mouse); assay: SEC-MALS; RanBP10 Q519G (Q547G) dilution series; molar masses of 0.3 ml peak fractions against concentration, one-site binding fit; dimer to monomers
[4] = target: Maea CTLH-CRA domain (156-279) (mouse) (UniProt Q4VC33); assay: SEC-MALS; purified CTLH-CRA domains alone or mixed (RanBP10 and Twa1 variants with Maea or muskelin), final concentration 250 μM, Superdex 75 10/300 GL
[5] = target: RanBP10 CTLH-CRA domain (315–608, Δ382–529), wild type (mouse); assay: ITC; muskelin CTLH-CRA (160 μM, syringe) titrated into RanBP10 or Twa1 CTLH-CRA variants (16 μM, cell); 25°C; 20 mM tricine pH 8.0, 500 mM NaCl, 1 mM TCEP; one-site model
[6] = target: RanBP10 CTLH-CRA domain (315–608, Δ382–529), wild type; assay: ITC; details: 160 µM muskelin + 16 µM RanBP10
[7] = target: RanBP10 CTLH-CRA domain (315–608, Δ382–529), wild type; assay: ITC; details: 160 µM muskelin + 16 µM RanBP10; remark: listed apart in the source
[8] = target: RanBP10 CTLH-CRA domain (315–608, Δ382–529), wild type (mouse); assay: SEC-MALS; CTLH-CRA domain complexes co-expressed in E. coli and purified as complexes; Superdex 75 10/300 GL; 20 mM tricine pH 8.0, 500 mM NaCl, 1 mM TCEP
[9] = 160 µM muskelin + 16 µM RanBP10 mutants
[10] = 160 µM muskelin + 16 µM RanBP10 mutants, parent: est. 4.1 kcal/mol
[11] = 160 µM muskelin + 16 µM RanBP10 mutants, parent: est. -11 kcal/mol
[12] = 160 µM muskelin + 16 µM RanBP10 mutants, parent: est. -16 kcal/mol
[13] = 160 µM muskelin + 16 µM Twa1 mutants

Sequence of Maea CTLH-CRA domain (156-279) (mouse) (Q4VC33 156-279): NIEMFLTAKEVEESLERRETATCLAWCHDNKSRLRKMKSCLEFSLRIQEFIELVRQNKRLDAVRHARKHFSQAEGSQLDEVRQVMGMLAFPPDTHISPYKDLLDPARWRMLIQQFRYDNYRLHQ
Sequence of Wdr26 (102–641) (mouse) (Q8C6G8 102-641): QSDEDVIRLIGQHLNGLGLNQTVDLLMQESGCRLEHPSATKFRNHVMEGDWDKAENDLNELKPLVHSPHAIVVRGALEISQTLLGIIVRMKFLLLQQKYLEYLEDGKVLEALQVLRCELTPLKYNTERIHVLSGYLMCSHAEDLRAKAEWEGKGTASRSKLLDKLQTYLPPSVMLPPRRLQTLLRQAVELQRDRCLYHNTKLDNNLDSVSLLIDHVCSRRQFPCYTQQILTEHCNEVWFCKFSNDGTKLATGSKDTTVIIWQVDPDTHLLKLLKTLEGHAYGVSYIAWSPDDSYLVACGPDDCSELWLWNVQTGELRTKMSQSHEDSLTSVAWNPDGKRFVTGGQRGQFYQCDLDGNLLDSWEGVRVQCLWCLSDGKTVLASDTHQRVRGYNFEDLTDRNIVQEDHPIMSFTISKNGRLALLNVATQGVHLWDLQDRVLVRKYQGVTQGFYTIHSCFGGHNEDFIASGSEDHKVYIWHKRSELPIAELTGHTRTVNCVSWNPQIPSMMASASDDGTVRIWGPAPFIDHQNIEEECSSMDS

| Substance | Kd [1] | Kd [2, 9] | other: molar ratio n [2, 9] | other: -TΔS [2, 10] | dG [2, 11] | other: ΔH [2, 12] | other results |
| --- | --- | --- | --- | --- | --- | --- | --- |
| RanBP10 (57–648)-Twa1 (1–228) complex (from UniProt Q9D7M1 1-228) | – | – | – | – | – | – | Kd (Wdr26 (102–641) (mouse)): 0.0623 nM; Kd (muskelin (1–735) (rat)): 0.07 nM |
| RanBP10 CTLH-CRA domain (315–608, Δ382–529), wild type F543L | 83.7 nM | 83.7 nM | 0.88 | -0.7 kcal/mol | -9.6 kcal/mol | -8.8 kcal/mol | – |
| RanBP10 CTLH-CRA domain (315–608, Δ382–529), wild type F543L; V556F | 338 nM | 338 nM | 0.98 | -0.5 kcal/mol | -8.9 kcal/mol | -8.4 kcal/mol | – |
| RanBP10 CTLH-CRA domain (315–608, Δ382–529), wild type F543L; Y548F | 390 nM | 390 nM | 0.91 | -3.3 kcal/mol | -8.8 kcal/mol | -5.4 kcal/mol | – |
| RanBP10 CTLH-CRA domain (315–608, Δ382–529), wild type Q519G | – | 8.49 nM | 0.93 | 4.1 kcal/mol | -11 kcal/mol | -15 kcal/mol | – |
| RanBP10 CTLH-CRA domain (315–608, Δ382–529), wild type V556F | – | – | 0.8 | 5 kcal/mol | -11 kcal/mol | -16 kcal/mol | – |
| RanBP10 CTLH-CRA domain (315–608, Δ382–529), wild type Y548F | 54.8 nM | 54.8 nM | 1.06 | 1.9 kcal/mol | -10 kcal/mol | -12 kcal/mol | – |
| RanBP10 CTLH-CRA domain (315–608, Δ382–529), wild type Y548F; V556F | 298 nM | 298 nM | 0.95 | -0.6 kcal/mol | -9 kcal/mol | -8.3 kcal/mol | – |
| RanBP10 CTLH-CRA domain Q519G (domain or fragment) | – | – | – | – | – | – | Kd [3]: 18000 nM; stoichiometry N [4]: 1 |
| RanBP10 CTLH-CRA domain Q519G, F543L, Y548F, V556F (quadruple mutant) (from UniProt Q6VN19 315-608) (domain or fragment) | – | – | – | – | – | – | stoichiometry N [4]: 1 |
| Twa1 CTLH-CRA domain (58-190), wild type (from UniProt Q9D7M1) A125G; Q126R; T127del; A130Q; L140K; M143L; E144K; L147F; F152Y | – | – | – | – | – | – | Kd [2, 13]: 795 nM; other: molar ratio n [2, 13]: 0.94; dG [2, 13]: -8.3 kcal/mol; other: -TΔS [2, 13]: -0.4 kcal/mol; other: ΔH [2, 13]: -7.9 kcal/mol |
| Twa1 CTLH-CRA domain (58-190), wild type (from UniProt Q9D7M1) A125G; Q126R; T127del; Q128E; A130Q; L140K; M143L; E144Q; L147F; A148S; F152Y; F160V | – | – | – | – | – | – | Kd [2, 13]: 247 nM; other: molar ratio n [2, 13]: 1.05; dG [2, 13]: -9 kcal/mol; other: -TΔS [2, 13]: 4.3 kcal/mol; other: ΔH [2, 13]: -13 kcal/mol |
| Twa1 CTLH-CRA domain (58-190), wild type (from UniProt Q9D7M1) A125G; Q126R; T127del; Q128E; A130Q; M143L; E144Q; L147F; A148S; F152Y | – | – | – | – | – | – | Kd [2, 13]: 354 nM; other: molar ratio n [2, 13]: 0.95; dG [2, 13]: -8.8 kcal/mol; other: -TΔS [2, 13]: 3.4 kcal/mol; other: ΔH [2, 13]: -12 kcal/mol |
| muskelin CTLH-CRA domain (205–735 Δ248–625) (from UniProt Q99PV3 205-735) (domain or fragment) | – | – | – | – | – | – | Kd [5]: 4.33 nM |
| muskelin CTLH-CRA domain (205–735 Δ248–625) (from UniProt Q99PV3) F686L | – | – | – | – | – | – | Kd [6]: 56.7 nM; Kd [7]: 56.7 nM; other: molar ratio n [7]: 1.07; other: -TΔS ([7]; parent: est. 4.1 kcal/mol, read off a plot): -1.6 kcal/mol; dG ([7]; parent: est. -11 kcal/mol, read off a plot): -9.9 kcal/mol; other: ΔH ([7]; parent: est. -16 kcal/mol, read off a plot): -8.2 kcal/mol |
| muskelin CTLH-CRA domain, C-terminally shortened (205–719, Δ248–624) (from UniProt Q99PV3 205-719) (domain or fragment) | – | – | – | – | – | – | stoichiometry N [8]: 1 |
